The target in one assay is PKC-α (Homo sapiens, UniProt P17252). Put plainly: ELISA-based competitive binding assay with purified PKC isoform. Details: key to Affinity for PKC isoform α: —: no detectable affinity; Low to very low affinity at 10X or 20X or both PRE concentrations in at least one cell line in the cell extract assay; Low affinity in purified isoform assay.; Moderate affinity at 10X or 20X or both PRE concentrations in at least one cell line in the cell extract assay.; High affinity at 10X or 20X or both PRE concentrations in at least one cell line in the cell extract assay; High affinity in purified isoform assay. The conditions noted are these: for inhibition at 50 µM / inhibition at 100 µM / inhibition at 200 µM / calculated binding capacity (100-% n) after subtraction of the DMSO apparent binding capacity: purified PKC-α; for inhibition at 50 µM / inhibition at 100 µM / inhibition at 200 µM: read-out: calculated binding capacity (100-% n) after subtraction of the DMSO apparent binding capacity; for Affinity for PKC isoform α: Purified isoform, Table 20; for targeting of PKC-α: purified isoform, Tables 14-19; for isoform specificity: purified isoforms α, βI, βII, δ, ε, ζ compared. On the procedure:
Peptides PRE 1, 2, 3, 4, 5, 6, 7, 8, 9, 10, 11, 12 and 13 (see Table 3) were tested for their ability to interfere with binding of PKC isoform-specific antibodies to their target PKC isoforms using a competitive binding assay and purified PKC isoforms.
Procedure: Competitive binding was assessed using a 96 well plate ELISA-based assay as described below.
Greiner 96 well ELISA plates were coated with the appropriate PKC isoform diluted in PBSN (PBS with Calcium/Magnesium+0.05% Sodium azide w/w). 50 μL/well at 250 ng/mL was used. Control wells contained PBSN only. Plates were incubated overnight at 4° C.
The plates were washed 3 times with 200 μL of dH2O per well, then 100 μL of blocking solution was added per well and the plate incubated for 1 h at 37° C. The washing steps with dH2O were repeated and 50 μL of the appropriate PRE solution (PRE stock solution [20 mM in DMSO] diluted in PBSN) was added and the plate incubated for 1 h at room temperature.
After incubation, 5 μL of 1.1:400 anti-PKC (isoform specific antibody) was added per well (to provide a final concentration of 1:4000). For PKC-epsilon, 1.1:800 dilution was used and for PKC-zeta a 1.1:100 dilution was used due to high and low binding affinity, respectively. The plates were then incubated 1 h at room temperature, followed by washing with dH2O as described above.
50 μL of 1:1000 dilution of Alkaline Phosphatase (AP) conjugated antibody (anti-rabbit for all except zeta, which was anti-goat) was then added and the plate incubated for 1 h at room temperature. Washing with dH2O was then repeated. Finally, 100 μL of pNPP solution in pNPP buffer (2 mM MgCl2, 100 mM Sodium bicarbonate in water, pH 9.8) was added to all wells and incubated for 8 minutes for α, βI, βII ε, and ζ, or for 15-20 mins for […] (until sufficient coloration is observed). The reaction was stopped by addition of Stop solution (2N NaOH) and the absorbance at 405 nm was read on a Galaxy Plate reader.
Controls were PKC without PRE; blank controls, and controls containing the final concentrations of DMSO used for solubilizing the PREs. The non-specific binding capacity related to DMSO was also measured.
The antibodies used were as follows: anti-PKC α (Cat. No. SC-208); anti-PKC βI (Cat. No. SC-209); anti-PKC βII (Cat. No. SC-210); anti-PKC δ (Cat. No. SC-213); anti-PKC ε (Cat. No. SC-214); anti-PKC ζ (Cat. No. SC-216-G) (all from Santa Cruz Biotechnology, Inc.). The AP-conjugated antibodies were obtained from Jackson Immuno Research Laboratories (West Grove, Pa.).
Calculations: The OD values measured at 405 nm represent the free PKC coated per well.
OD405 PKC alone−Blank OD405 of each sample=OD405 coated isoform
(OD405 of sample X/OD405 coated isoform)×100=% n that represents the percentage of X binding compared to control.
100-% n measures the relative binding capacity of X towards the tested isoform.
The apparent binding capacity of the DMSO samples was then subtracted from X binding capacity.
All measurements were made in triplicate and the values in the table represent the averaged calculated binding capacity values after subtraction of the DMSO apparent binding capacity (averaged from 12 values, respectively 10.80, 11.20 and 16.40 corresponding to the concentrations of DMSO used to dilute the […] at 200, 100 and 50 μM respectively). The results allow for quantitative comparison of the binding capacity of each PRE towards an individual isoform within each table, but not among isoforms due to differences in sensitivity of the specific antibodies toward the secondary antibody. This applies particularly to PKC-delta. As noted above, the colour development duration was increased 2-3 times and, as a result, the OD405 measurements may be overestimated for this isoform.

Another assay concerns the target PKC-δ (Homo sapiens, UniProt Q05655). Put plainly: Competitive binding assay using cell extracts (Western blot). Details: cytoplasmic extracts from different cell lines expressing appropriate PKC isoforms; endogenous in cells; host or cells: H661, MDAMB231, LS180, T24 (human, from ATCC); key to Affinity for PKC isoform δ: —: no detectable affinity; Low to very low affinity at 10X or 20X or both PRE concentrations in at least one cell line in the cell extract assay; Low affinity in purified isoform assay.; Moderate affinity at 10X or 20X or both PRE concentrations in at least one cell line in the cell extract assay.; High affinity at 10X or 20X or both PRE concentrations in at least one cell line in the cell extract assay; High affinity in purified isoform assay. The conditions noted are these: for Affinity for PKC isoform δ: Cell extract, PRE at 10X, 20X antibody concentration, Table 20. On the procedure: Binding efficiency and specificity of the peptides PRE 2, 3, 4, 5, 6, 7, 8, 9, 10, 11, 12 and 13 (see Table 3) was also tested using cytoplasmic extracts from different cell lines expressing appropriate PKC isoforms as described for Example 1. Briefly, the protein cytoplasmic extracts were separated by electrophoresis and transferred onto nitrocellulose membranes by standard Western blotting procedures. The bands on the Western blots were detected with matching primary antibodies and alkaline phosphatase conjugated secondary antibody. The bands were then scanned and the relative density measurements obtained.
This procedure to assess the binding characteristics of the PREs is based on competition binding of the PRE with the primary anti-isoform PKC specific antibodies. The lower the measured band density, the greater the binding of the PRE to the PKC isoform. The PREs were added at 10 and 20 times (10×, 20×) the primary antibody concentration, according to classical competition between antigenic peptide and primary antibody. The following cell lines (obtained from the ATCC) were used: H661—NCI human lung carcinoma NSCLC; MDAMB231—human highly invasive breast cancer cell line from pleural effusion; LS180—human colon adenocarcinoma; LnCAP—human prostate adenocarcinoma; CCD16Lu—human lung fibroblasts; Du145—human prostate carcinoma brain metastasis, and T24—human bladder carcinoma.
In these cases, the 20× band density figures relative to control and 10× values were reliable.
Background: A western blot detects proteins with antibodies after separation by electrophoresis.

PKC-δ, sequence (Q05655 whole entry, canonical isoform): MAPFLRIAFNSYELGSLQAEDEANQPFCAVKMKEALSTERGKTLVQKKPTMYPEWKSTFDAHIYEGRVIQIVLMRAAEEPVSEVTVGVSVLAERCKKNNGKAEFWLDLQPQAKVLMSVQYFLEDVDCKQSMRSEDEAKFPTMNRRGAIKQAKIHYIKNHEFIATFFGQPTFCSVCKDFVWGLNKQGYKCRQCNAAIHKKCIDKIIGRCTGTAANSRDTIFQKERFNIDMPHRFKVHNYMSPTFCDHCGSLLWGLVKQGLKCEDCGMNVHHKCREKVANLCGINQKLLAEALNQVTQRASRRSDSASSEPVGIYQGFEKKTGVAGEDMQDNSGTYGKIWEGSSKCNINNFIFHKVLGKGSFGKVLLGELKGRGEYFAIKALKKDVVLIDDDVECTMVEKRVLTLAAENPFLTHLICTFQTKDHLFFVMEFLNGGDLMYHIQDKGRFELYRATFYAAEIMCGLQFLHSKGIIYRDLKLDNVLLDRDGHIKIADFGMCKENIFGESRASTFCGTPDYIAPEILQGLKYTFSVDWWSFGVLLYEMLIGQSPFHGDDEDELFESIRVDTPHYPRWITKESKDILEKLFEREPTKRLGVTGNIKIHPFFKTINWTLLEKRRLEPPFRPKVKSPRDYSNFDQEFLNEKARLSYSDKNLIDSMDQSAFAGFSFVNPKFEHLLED

Ac-AKGIQEVKGGDAQNLIGISI-NH2 [PRE 3]: the inhibition at 50 µM at PKC-α (PRE 50 μM) was 17.5%. Moreover, the inhibition at 100 µM on PKC-α (PRE 100 μM) was 26.5%. Besides, at PKC-α (PRE 200 μM), the inhibition at 200 µM was 22.6%. Further, at PKC-α, the “Affinity for PKC isoform α” value is recorded as “H”; the “targeting of PKC-α” value is given as “targeted most strongly”; the “isoform specificity” value is ““universal” PKC targeting peptide, with the exception of the PKC-βII isoform”. In addition, on PKC-δ, the “Affinity for PKC isoform δ” value is recorded as “H”.
In the case of Ac-AKGIQEVKGGKDAQNLIGISI-NH2 [PRE 5], the inhibition at 50 µM on PKC-α (PRE 50 μM) was 0%. Further, the inhibition at 100 µM at PKC-α (PRE 100 μM) was 0%. For the same substance, the inhibition at 200 µM on PKC-α (PRE 200 μM) is 0%. The “Affinity for PKC isoform α” value at PKC-α is reported as “—”. Moreover, on PKC-δ, the “Affinity for PKC isoform δ” value is listed as “—”.
Ac-ISIGILNQADK-NH2 [PRE 10]: in the assay with PKC-α, the “Affinity for PKC isoform α” value is “—”. Further, the “Affinity for PKC isoform δ” value in the assay with PKC-δ was “H”.
In the case of Ac-ISIGILQNADK-NH2 [PRE 7], in the assay with PKC-α, the “Affinity for PKC isoform α” value is given as “L”. Further, in the assay with PKC-δ, the “Affinity for PKC isoform δ” value is given as “L”.
On to Ac-KDANQLIGISI-NH2 [PRE 6], for which the “Affinity for PKC isoform α” value with PKC-α is recorded as “—”. For the same substance, the “Affinity for PKC isoform δ” value with PKC-δ is “M/H”.
For the substance Ac-KDAQNLI-NH2 [PRE 12], the “Affinity for PKC isoform α” value with PKC-α is recorded as “—”. Further, in the assay with PKC-δ, the “Affinity for PKC isoform δ” value is “—”.
As for “Ac-KDAQNLIGISI-NH2 [PRE 4, Ac-KDAQNLIGISI-NH2]”, at PKC-α (PRE 50 μM), the inhibition at 50 µM is 6.46%. At PKC-α (PRE 100 μM), the inhibition at 100 µM is 21.9%. The inhibition at 200 µM at PKC-α (PRE 200 μM) was 22.8%. Further, at PKC-α, the “Affinity for PKC isoform α” value was “H”, the “targeting of PKC-α” value is on record as “targeted most strongly” and the “isoform specificity” value is given as “specificity for PKC-A”. Further, the “Affinity for PKC isoform δ” value at PKC-δ is on record as “—”. Further, the “affinity for PKC-δ” value on PKC-δ (cell extracts) was “none for PKC-6”.
As to Ac-RDAQNLI-NH2 [PRE 13], the “Affinity for PKC isoform α” value in the assay with PKC-α is “—”. Further, the “Affinity for PKC isoform δ” value with PKC-δ is reported as “—”.
Consider Ac-RDAQNLIGISI-NH2 [PRE 11], for which the “Affinity for PKC isoform α” value in the assay with PKC-α is given as “L”. Moreover, the “Affinity for PKC isoform δ” value with PKC-δ is given as “—”.
Turning to Ac-isigilgnadk-NH2 [PRE 9], in the assay with PKC-α (PRE 100 μM), the “calculated binding capacity (100-% n) after subtraction of the DMSO apparent binding capacity” value was 5.35. The “Affinity for PKC isoform α” value with PKC-α is on record as “—”. The “Affinity for PKC isoform δ” value with PKC-δ is on record as “H”.
As for ILEDKGGDAQNLIGISI [PRE 8], in the assay with PKC-α, the “Affinity for PKC isoform α” value is “—”. Besides, in the assay with PKC-δ, the “Affinity for PKC isoform δ” value is listed as “L”.
On to RRKKGGKDFVVKR [PRE 1], for which the “calculated binding capacity (100-% n) after subtraction of the DMSO apparent binding capacity” value in the assay with PKC-α (PRE 50 μM) was 0.69; with PKC-α (PRE 200 μM), 2.10. Also, the “Affinity for PKC isoform α” value with PKC-α was “—”. Moreover, the “Affinity for PKC isoform δ” value in the assay with PKC-δ is given as “—”.

The values are drawn from patent publication US20100041597A1, “PEPTIDES TARGETED TO PROTEIN KINASE C ISOFORMS AND USES THEREOF” (priority 2005, published 2010).
